B1: sdAb Abr1 (VHH)
VHH: EVQLQASGGGLVQAGGSLRLSCAASGSDGSLEIMGWYRQAPGKQRELVARATSGGLKNYADSVKGRFTISGDLDKNTVYLQMNSLQPEDTGVYVCHLGVVASTYRDYWGQGTQVTVSS
notes: source: E. coli Rosetta, soluble sdAb expression vector
B2: sdAb Abr5 (VHH)
VHH: EVQLQASGGGLVQAGGSLRLSCVVSGLSVGLNPVAWYRQAPGQQRDWVARMSMRGLTDYPDSLKGRAIISRDNAKNTVSLQMDSLKPEDTAVYFCKVGLSYWGQGTQVTVSS
notes: as for B1
B3: sdAb Abr2 (VHH)
VHH: DVQLQASGGGLVQAGGSLVLSCTASGRSVSSLAMGWLRQVPGKERELVGSISLSGGRTYYADSMKGRFTISKDNAKNTVALQMNSLRPEDTAVYYCAARDAARDYAPLNFDTWGQGTQVTVSS
notes: as for B1

For one assay, the target named is bovine serum albumin (BSA) (Bos taurus, UniProt P02769). The experiment in a line: Luminex direct binding (microsphere fluorescence immunoassay). Particulars: both partners purified.
Chain of bovine serum albumin (BSA) (P02769 25-607): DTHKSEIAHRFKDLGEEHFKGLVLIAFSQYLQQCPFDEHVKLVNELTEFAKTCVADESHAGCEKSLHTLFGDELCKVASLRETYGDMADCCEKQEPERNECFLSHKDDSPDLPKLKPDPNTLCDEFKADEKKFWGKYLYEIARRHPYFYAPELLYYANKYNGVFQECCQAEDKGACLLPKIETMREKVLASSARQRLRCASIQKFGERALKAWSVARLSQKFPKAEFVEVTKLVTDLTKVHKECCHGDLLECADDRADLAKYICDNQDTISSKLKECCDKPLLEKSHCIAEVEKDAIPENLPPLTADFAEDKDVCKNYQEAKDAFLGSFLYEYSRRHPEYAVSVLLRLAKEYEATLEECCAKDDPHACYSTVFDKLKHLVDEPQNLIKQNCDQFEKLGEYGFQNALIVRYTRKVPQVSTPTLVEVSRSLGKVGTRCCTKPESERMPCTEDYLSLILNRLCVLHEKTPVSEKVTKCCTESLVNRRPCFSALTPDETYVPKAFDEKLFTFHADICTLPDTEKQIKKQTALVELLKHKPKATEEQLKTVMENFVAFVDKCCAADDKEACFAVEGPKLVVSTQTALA
Turning to B1, the binding result was “no binding”.

On to B2, for which the binding result is listed as “no binding”.

In the case of B3, the binding result is on record as “no binding”.

A further assay deals with T1, staphylococcal enterotoxin B (SEB) (Staphylococcus aureus, strain , UniProt P01552).
T1 construct: source: bought: Toxin Technology, Inc
T1 sequence (P01552 28-266): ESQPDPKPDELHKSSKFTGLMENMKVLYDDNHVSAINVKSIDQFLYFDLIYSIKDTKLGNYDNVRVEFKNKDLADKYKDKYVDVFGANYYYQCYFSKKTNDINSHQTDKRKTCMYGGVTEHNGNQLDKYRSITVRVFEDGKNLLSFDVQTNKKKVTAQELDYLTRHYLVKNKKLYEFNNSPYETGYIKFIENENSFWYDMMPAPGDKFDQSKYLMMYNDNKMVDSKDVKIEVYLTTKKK
The description is as above. The note with it: both partners purified.
On to B1, for which the binding result is “no binding”.

With B2, the binding result is given as “no binding”.

Turning to B3, the binding result is reported as “no binding”.

Values taken from article PMC3237003 (Toxins, 2011).
